The series can be described thus: Km and kcat of expressed HPPDs (HPLC/UV quantitation of homogentisate). Format: biochemical, Avena sativa. As to conditions: for Km / kcat: HPPDs expressed in extracts, 25° C., pH 7.0; for kcat: one active-site per dimer assumed; for Rate: kcat relative to non-mutated HPPD SEQ ID NO:14: for V217I, L271I, L271V, V258M, A326R estimated from initial rates in cell extracts, pH 7.0, 25° C., 120 μM HPP. On the procedure: The assay solution was transferred to Chromacol 03-CVG HPLC vials, sealed and the amount of homogentisate formed in a 40 μl aliquot determined by injection onto a reverse phase Aqua C18 5μ 75×4.6 mm HPLC column running 5.5% acetonitrile 0.1% TFA (Buffer A) at 1.5 ml/min. The column was eluted at 1.5 ml/minute using a 2 minute wash in buffer A, followed by a 2 minute wash in a 30/70 mixture of buffer A and 100% Acetonitrile, and a further 3.5 minute wash in buffer A. The elution of homogentisate was monitored by UV at 292 nm and the amount formed in each reaction quantified by comparison with a standard calibration curve.
Km and Vmax values were determined (for example FIG. 1) using a non linear least squares fit using Grafit 4™ software (Erithacus Software, Middlesex, UK). Kcat values were determined by dividing the maximum rate, Vmax expressed in nmol/second by the number of nmoles of HPPD enzyme (based on the concentration determined by active-site titration).
Experiments were carried out as described for Table 4. ‘Sulc’ denotes sulcotrione and ‘nd’ means ‘no data’. For V217I, L271I, L271V, V258M and A326R, the relative values of kcat were estimated from comparisons of the initial rates in cell extracts of similarly prepared and expressed HPPDs in conventional enzyme activity assays at pH 7.0, 25° C. and at a substrate concentration of 120 μM HPP.

The text below walks through data of patent US9175305B2, “Mutant hydroxyphenylpyruvate dioxygenase polypeptides and methods of use” (Syngenta Participations AG, priority 2009, dated 2015).

B1: SEQ ID #24: SEQ ID NO:14 with substitution of M for L within the sequence motif G(I,V)LVDRD (protein, listed as Avena sativa)
chain: MPPTPATATGAAAAAVTPEHAARSFPRVVRVNPRSDRFPVLSFHHVELWCADAASAAGRFSFALGAPLAARSDLSTGNSAHASLLLRSGALAFLFTAPYAPPPQEAATAATASIPSFSADAARTFAAAHGLAVRSVGVRVADAAEAFRVSVAGGARPAFAPADLGHGFGLAEVELYGDVVLRFVSYPDETDLPFLPGFERVSSPGAVDYGLTRFDHVVGNVPEMAPVIDYMKGFLGFHEFAEFTAEDVGTTESGLNSVVLANNSEAVLLPLNEPVHGTKRRSQIQTYLEYHGGPGVQHIALASNDVLRTLREMRARTPMGGFEFMAPPQAKYYEGVRRIAGDVLSEEQIKECQELGVMVDRDDQGVLLQIFTKPVGDRPTFFLEMIQRIGCMEKDEVGQEYQKGGCGGFGKGNFSELFKSIEDYEKSLEVKQSVVAQKS
For B1, the Michaelis-Menten constant (Km) was determined as 4.74 µM and the kcat is 4.35 s⁻¹.

B2: L281I: mutant of HPPD SEQ ID NO:14, called L271I in the text (protein)
chain: MPPTPATATGAAAAAVTPEHAARSFPRVVRVNPRSDRFPVLSFHHVELWCADAASAAGRFSFALGAPLAARSDLSTGNSAHASLLLRSGALAFLFTAPYAPPPQEAATAATASIPSFSADAARTFAAAHGLAVRSVGVRVADAAEAFRVSVAGGARPAFAPADLGHGFGLAEVELYGDVVLRFVSYPDETDLPFLPGFERVSSPGAVDYGLTRFDHVVGNVPEMAPVIDYMKGFLGFHEFAEFTAEDVGTTESGLNSVVLANNSEAVLLPINEPVHGTKRRSQIQTYLEYHGGPGVQHIALASNDVLRTLREMRARTPMGGFEFMAPPQAKYYEGVRRIAGDVLSEEQIKECQELGVLVDRDDQGVLLQIFTKPVGDRPTFFLEMIQRIGCMEKDEVGQEYQKGGCGGFGKGNFSELFKSIEDYEKSLEVKQSVVAQKS
modifications: mutant HPPD polypeptide
Consider B2, for which the “Rate: kcat relative to non-mutated HPPD SEQ ID NO:14” value was 1.7.

B3: SEQ ID #26: SEQ ID NO:14 with M for L within G(I,V)LVDR and M for L within SGLNS (protein, listed as Avena sativa)
chain: MPPTPATATGAAAAAVTPEHAARSFPRVVRVNPRSDRFPVLSFHHVELWCADAASAAGRFSFALGAPLAARSDLSTGNSAHASLLLRSGALAFLFTAPYAPPPQEAATAATASIPSFSADAARTFAAAHGLAVRSVGVRVADAAEAFRVSVAGGARPAFAPADLGHGFGLAEVELYGDVVLRFVSYPDETDLPFLPGFERVSSPGAVDYGLTRFDHVVGNVPEMAPVIDYMKGFLGFHEFAEFTAEDVGTTESGMNSVVLANNSEAVLLPLNEPVHGTKRRSQIQTYLEYHGGPGVQHIALASNDVLRTLREMRARTPMGGFEFMAPPQAKYYEGVRRIAGDVLSEEQIKECQELGVMVDRDDQGVLLQIFTKPVGDRPTFFLEMIQRIGCMEKDEVGQEYQKGGCGGFGKGNFSELFKSIEDYEKSLEVKQSVVAQKS
Turning to B3, the Km turned out to be 10.6 µM and the kcat was determined as 4.05 s⁻¹.

B4: L281V: mutant of HPPD SEQ ID NO:14, called L271V in the text (protein)
chain: MPPTPATATGAAAAAVTPEHAARSFPRVVRVNPRSDRFPVLSFHHVELWCADAASAAGRFSFALGAPLAARSDLSTGNSAHASLLLRSGALAFLFTAPYAPPPQEAATAATASIPSFSADAARTFAAAHGLAVRSVGVRVADAAEAFRVSVAGGARPAFAPADLGHGFGLAEVELYGDVVLRFVSYPDETDLPFLPGFERVSSPGAVDYGLTRFDHVVGNVPEMAPVIDYMKGFLGFHEFAEFTAEDVGTTESGLNSVVLANNSEAVLLPVNEPVHGTKRRSQIQTYLEYHGGPGVQHIALASNDVLRTLREMRARTPMGGFEFMAPPQAKYYEGVRRIAGDVLSEEQIKECQELGVLVDRDDQGVLLQIFTKPVGDRPTFFLEMIQRIGCMEKDEVGQEYQKGGCGGFGKGNFSELFKSIEDYEKSLEVKQSVVAQKS
modifications: mutant HPPD polypeptide
As to B4, the “Rate: kcat relative to non-mutated HPPD SEQ ID NO:14” value is recorded as 2.

B5: SEQ ID #21: SEQ ID NO:14 with substitution of V for I within the sequence motif SQIQTY (protein, listed as Avena sativa)
chain: MPPTPATATGAAAAAVTPEHAARSFPRVVRVNPRSDRFPVLSFHHVELWCADAASAAGRFSFALGAPLAARSDLSTGNSAHASLLLRSGALAFLFTAPYAPPPQEAATAATASIPSFSADAARTFAAAHGLAVRSVGVRVADAAEAFRVSVAGGARPAFAPADLGHGFGLAEVELYGDVVLRFVSYPDETDLPFLPGFERVSSPGAVDYGLTRFDHVVGNVPEMAPVIDYMKGFLGFHEFAEFTAEDVGTTESGLNSVVLANNSEAVLLPLNEPVHGTKRRSQVQTYLEYHGGPGVQHIALASNDVLRTLREMRARTPMGGFEFMAPPQAKYYEGVRRIAGDVLSEEQIKECQELGVLVDRDDQGVLLQIFTKPVGDRPTFFLEMIQRIGCMEKDEVGQEYQKGGCGGFGKGNFSELFKSIEDYEKSLEVKQSVVAQKS
Consider B5, for which the Km was found to be 5.98 µM and the kcat was determined as 5.47 s⁻¹.

B6: V217I: V217I mutant of HPPD SEQ ID NO:14 (protein)
chain: MPPTPATATGAAAAAVTPEHAARSFPRVVRVNPRSDRFPVLSFHHVELWCADAASAAGRFSFALGAPLAARSDLSTGNSAHASLLLRSGALAFLFTAPYAPPPQEAATAATASIPSFSADAARTFAAAHGLAVRSVGVRVADAAEAFRVSVAGGARPAFAPADLGHGFGLAEVELYGDVVLRFVSYPDETDLPFLPGFERVSSPGAVDYGLTRFDHIVGNVPEMAPVIDYMKGFLGFHEFAEFTAEDVGTTESGLNSVVLANNSEAVLLPLNEPVHGTKRRSQIQTYLEYHGGPGVQHIALASNDVLRTLREMRARTPMGGFEFMAPPQAKYYEGVRRIAGDVLSEEQIKECQELGVLVDRDDQGVLLQIFTKPVGDRPTFFLEMIQRIGCMEKDEVGQEYQKGGCGGFGKGNFSELFKSIEDYEKSLEVKQSVVAQKS
modifications: mutant HPPD polypeptide
B6: the “Rate: kcat relative to non-mutated HPPD SEQ ID NO:14” value is 1.1.

B7: SEQ ID #18: SEQ ID NO:14 with substitution of T for I within the sequence motif SQIQTY (protein, listed as Avena sativa)
chain: MPPTPATATGAAAAAVTPEHAARSFPRVVRVNPRSDRFPVLSFHHVELWCADAASAAGRFSFALGAPLAARSDLSTGNSAHASLLLRSGALAFLFTAPYAPPPQEAATAATASIPSFSADAARTFAAAHGLAVRSVGVRVADAAEAFRVSVAGGARPAFAPADLGHGFGLAEVELYGDVVLRFVSYPDETDLPFLPGFERVSSPGAVDYGLTRFDHVVGNVPEMAPVIDYMKGFLGFHEFAEFTAEDVGTTESGLNSVVLANNSEAVLLPLNEPVHGTKRRSQTQTYLEYHGGPGVQHIALASNDVLRTLREMRARTPMGGFEFMAPPQAKYYEGVRRIAGDVLSEEQIKECQELGVLVDRDDQGVLLQIFTKPVGDRPTFFLEMIQRIGCMEKDEVGQEYQKGGCGGFGKGNFSELFKSIEDYEKSLEVKQSVVAQKS
B7: the Km turned out to be 36 µM and the kcat was 17.94 s⁻¹.

B8: SEQ ID #22: SEQ ID NO:14 with substitution of M for L within the sequence motif SGLNS (protein, listed as Avena sativa)
chain: MPPTPATATGAAAAAVTPEHAARSFPRVVRVNPRSDRFPVLSFHHVELWCADAASAAGRFSFALGAPLAARSDLSTGNSAHASLLLRSGALAFLFTAPYAPPPQEAATAATASIPSFSADAARTFAAAHGLAVRSVGVRVADAAEAFRVSVAGGARPAFAPADLGHGFGLAEVELYGDVVLRFVSYPDETDLPFLPGFERVSSPGAVDYGLTRFDHVVGNVPEMAPVIDYMKGFLGFHEFAEFTAEDVGTTESGMNSVVLANNSEAVLLPLNEPVHGTKRRSQIQTYLEYHGGPGVQHIALASNDVLRTLREMRARTPMGGFEFMAPPQAKYYEGVRRIAGDVLSEEQIKECQELGVLVDRDDQGVLLQIFTKPVGDRPTFFLEMIQRIGCMEKDEVGQEYQKGGCGGFGKGNFSELFKSIEDYEKSLEVKQSVVAQKS
In the case of B8, the Km was 12.4 µM and the kcat stood at 5.79 s⁻¹.

B9: SEQ ID #14: HPPD derived from Avena sativa; single deletion variant of the Avena sativa HPPD (protein)
chain: MPPTPATATGAAAAAVTPEHAARSFPRVVRVNPRSDRFPVLSFHHVELWCADAASAAGRFSFALGAPLAARSDLSTGNSAHASLLLRSGALAFLFTAPYAPPPQEAATAATASIPSFSADAARTFAAAHGLAVRSVGVRVADAAEAFRVSVAGGARPAFAPADLGHGFGLAEVELYGDVVLRFVSYPDETDLPFLPGFERVSSPGAVDYGLTRFDHVVGNVPEMAPVIDYMKGFLGFHEFAEFTAEDVGTTESGLNSVVLANNSEAVLLPLNEPVHGTKRRSQIQTYLEYHGGPGVQHIALASNDVLRTLREMRARTPMGGFEFMAPPQAKYYEGVRRIAGDVLSEEQIKECQELGVLVDRDDQGVLLQIFTKPVGDRPTFFLEMIQRIGCMEKDEVGQEYQKGGCGGFGKGNFSELFKSIEDYEKSLEVKQSVVAQKS
modifications: mutant HPPD polypeptide
Take B9: the Km came out at 5.38 µM, the kcat was 6.46 s⁻¹ and the “Rate: kcat relative to non-mutated HPPD SEQ ID NO:14” value is reported as 1.

What is called Km is the concentration of substrate that gives half-maximal velocity. The term kcat denotes the number of substrate molecules converted per active site and unit of time at saturation.
